Common to all, as to assay: split reporter (BiFC, NanoBiT)
Test [1] has as its target GLRaV-3 heat shock protein 70 homolog (HSP70h), BiFC fusion (grapevine leafroll-associated virus 3 (isolate GP18)).
For test [2], the target named is GLRaV-3 coat protein (CP), BiFC fusion (grapevine leafroll-associated virus 3 (isolate GP18)).
The target in test [3] is GLRaV-3 silencing suppressor p20B, BiFC fusion (grapevine leafroll-associated virus 3 (isolate GP18)).
Test [4] has as its target GLRaV-3 transmembrane movement protein p5, BiFC fusion (grapevine leafroll-associated virus 3 (isolate GP18)).

Among the data in paper PMC9865355 are average MI diff values, retold here.

As for “GLRaV-3 heat shock protein 70 homolog (HSP70h), BiFC fusion (natural protein)”, the average MI diff in test [1] amounted to 51.8; in test [2] it was 34.6; in test [3] it was 45.5.

As for “GLRaV-3 transmembrane movement protein p5, BiFC fusion (natural protein)”, in test [4], the average MI diff was 114.

As to “GLRaV-3 minor coat protein (CPm), BiFC fusion (natural protein)”, the average MI diff in test [3] came out at 27.2.

In the case of “GLRaV-3 silencing suppressor p20B, BiFC fusion (natural protein)”, in test [3], the average MI diff was 92.7.

Regarding “GLRaV-3 coat protein (CP), BiFC fusion (natural protein)”, the average MI diff was 27 in test [2] and 55.7 in test [3].
